Reference: paper PMC2748697, “Capzb2 Interacts with β-Tubulin to Regulate Growth Cone Morphology and Neurite Outgrowth” (PLoS Biology, 2009)

Target: T1, GST-Capza2 (mouse, UniProt P47754 1-286)
T1 construct: Capza2, α2 subunit of F-actin capping protein, from E17 mouse cDNA; primers run from the start codon (atg gcg gat ctg) to the stop codon; pGEX-4T-2 vector; The methods of the native gel say 'Capza2', the legend 'GST-Capza2'; also called α2-subunit; the other CP subunit; source: E. coli BL21-DE3 or ArcticExpress (DE3)RP, purified (glutathione sepharose)
Assay: native gel or EMSA; 1 µM GST-Capzb2 or GST-Capzb2Δ106–140 with 1 µM GST-Capza2, 10 min at 4°C, 4%–20% Tris-glycine native gel, bands excised and identified by Western blot
Conditions: both partners purified

binding result: binds
B1: GST-Capzb2Δ106–140 (natural protein, mouse, UniProt P47757-2 1-272, looked up)
chain: MSDQQLDCALDLMRRLPPQQIEKNLSDLIDLVPSLCEDLLSSVDQPLKIARDKVVGKDYLLCDYNRDGDSYRSPWSNKYDPPLEDGAMPSARLRKLEVEANNAFDSKKIKGCWDSIHVVEVQEKSSGRTAHYKLTSTVMLWLQTNKSGSGTMNLGGSLTRQMEKDETVSDCSPHIANIGRLVEDMENKIRSTLNEIYFGKTKDIVNGLRSVQTFADKSKQEALKNDLVEALKRKQQC
notes: pGEX-4T-2 vector; also called deletion mutant; source: E. coli BL21-DE3 or ArcticExpress (DE3)RP, purified (glutathione sepharose)
